Experimental data as given in the supplement of paper PMC10126150.
± gives the standard deviation of the averaged measurements.

Test system: ATP
Assay: switch fluorescence ratio, 500 uM ATP over buffer (Cy3 cluster intensity, sum of 5 cycles each) (fold (ratio)); higher = stronger signal-on switching upon ATP binding; sequences stand for … in TCGTCGGCAGCGTCAGATGTGTATAAGAGACAGTTTTTTTTTTTTTTTTTTTTTTTTT…TC
Settings: aptamer strand: ATP DNA aptamer (quencher-CACCTGGGGGAGTATTGCGGAGGAAGG + anchor), 100 nM annealed; ATP concentration: 500 uM
Method in brief: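 Exposure to 500 uM ATP lasted 15 min at 22 °C before imaging, and a selection-buffer image was taken beforehand, for Cy3-labelled switching-strand clusters on a modified Illumina MiSeq flow-cell annealed to 100 nM quencher-labelled ATP aptamer. Five buffer/ATP cycles were run with NaOH stripping and re-annealing between them. The fluorescence ratio per cluster is summed target-cycle over summed buffer-cycle Cy3 intensity, averaged per switch-domain sequence. Clusters outside 100-1000 RFU were excluded.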

Sequence | switch fluorescence ratio
GCGCGATGGA | 1.03 ± 0.019
TCCATTGTGT | 0.992 ± 0.029
TCTACTGGGC | 1.05 ± 0.1
CGTGATTTGG | 1.006 ± 0.0065
ATTTTTCTGC | 1.03 ± 0.039
ACTCTGGGAG | 1.03 ± 0.022
ATTGATTTAA | 0.9989 ± 0.0086
CAATTCGTAA | 1.11 ± 0.018
GGGGGTTCAT | 0.979 ± 0.013
CGCGGGAAGG | 1.02 ± 0.036
CCTGGGGGTC | 1.03 ± 0.024
CAACTGCATA | 1.98 ± 0.063
CACTGGGGGC | 1.02 ± 0.036
TTATGGGGAG | 1.005 ± 0.0034
TGCATGGGAG | 1.001 ± 0.0039
TAGGTAAATT | 1.02 ± 0.054
TCGGTCACCA | 1.05 ± 0.028
TTCGGTAGGG | 0.926 ± 0.053
GTTGGGGGAG | 0.978 ± 0.02
TAATGCTTTT | 0.978 ± 0.03
TCTAAGTCCA | 0.989 ± 0.068
TCGGTTAGTA | 0.9883 ± 0.0021
TTTAATTTTT | 0.988 ± 0.036

Sequence | switch fluorescence ratio
TTCATCTGCA | 2.19 ± 1.5
TAACCAATTT | 1.01 ± 0.018
ATGCTGGGCG | 1.02 ± 0.041
ATGGGAGGTG | 1.01 ± 0.039
TGTATGTGAG | 0.98 ± 0.054
AAGTCAATTC | 1.36 ± 0.12
GGGAAAAAAC | 1.013 ± 0.0064
TCGATTGGTG | 1.01 ± 0.013
GGGGGTAGCG | 1.02 ± 0.028
GGAAACTGGT | 1.05 ± 0.069
TATTGCTTCT | 0.9913 ± 0.0021
CGGAGTGTGT | 1.01 ± 0.016
AGGGGTGCGC | 0.9894 ± 0.0055
GCTTCAGAGT | 1 ± 0.02
TTTTAGAAA | 1.02 ± 0.07
GAAGGCTCCG | 1.04 ± 0.014
GGGTGGGATG | 0.984 ± 0.017
AGATGCTGGT | 0.994 ± 0.015
AGTTGGGGAA | 0.983 ± 0.031
TTTGGGGACA | 1.01 ± 0.019
CGTAGAGGGC | 0.986 ± 0.034
TTCCTCTCGG | 1.17 ± 0.18
TAGGTTGCAA | 0.9665 ± 0.007

Sequence | switch fluorescence ratio
TTTGATACCA | 1.005 ± 0.0051
CGTTTGGGGG | 0.987 ± 0.021
GGGGCAGCTG | 1.06 ± 0.08
AAGGCAGGGC | 0.972 ± 0.04
CATTTATATT | 0.986 ± 0.032
GCGCAGTGGC | 1.23 ± 0.058
CCTGGCCAGC | 0.978 ± 0.015
GATTTGTGTG | 0.978 ± 0.034
TTAGCGGGAT | 1.01 ± 0.044
TAATTTCTAC | 1.005 ± 0.0054
GTAGTCATTT | 0.992 ± 0.022
AACATCGTTT | 1.02 ± 0.019
CTCGGTTTGG | 1.01 ± 0.028
GGGGGTGTTC | 0.991 ± 0.028
ATGGGGGGCA | 0.971 ± 0.025
ATCCGGGATG | 1.03 ± 0.021
TTTTTCTCGG | 0.992 ± 0.01
AGAGAACGCT | 0.967 ± 0.035
TCGTTACCTT | 1.135 ± 0.0013
ATGATGGTTA | 0.9978 ± 0.0052
AAGGGGTTGC | 1.03 ± 0.022
GCTTACTCTG | 1.62 ± 0.085
GTAATTGCTG | 1.01 ± 0.059

Sequence | switch fluorescence ratio
TTCGTTTGAA | 1 ± 0.027
GCAGTTGAGT | 1.01 ± 0.017
TTGGGAATAC | 3.23 ± 0.53
CGTACAGATA | 0.994 ± 0.027
GTGTTTTCGG | 0.985 ± 0.016
GTCAGGAGGG | 0.971 ± 0.026
TTTGGGCGAA | 1.002 ± 0.0068
GTGAGTGGTG | 0.978 ± 0.015
AGGTTGTCGT | 0.997 ± 0.035
GCATGTCGGA | 1.01 ± 0.039
TGTACGTGGC | 1.08 ± 0.086
GTATTTCTTA | 0.974 ± 0.0099
TTAAAAGAGA | 1.04 ± 0.0028
GGGGTGGCGC | 0.964 ± 0.036
GTGTTAGGCG | 0.981 ± 0.018
AGCTTGGAAA | 1 ± 0.031
CTGGGGGCAG | 1.036 ± 0.0073
TCTACGCACT | 2.62 ± 0.15
ATAGGGTCGG | 1.02 ± 0.063
TGGTTGATTG | 0.975 ± 0.047
ATCAAGGTTG | 0.978 ± 0.031
TTGCGTGATG | 1.02 ± 0.029
TATTTTGGTG | 0.984 ± 0.033

Sequence | switch fluorescence ratio
TCGACCGATT | 1.03 ± 0.037
CGTATTGCGT | 1.01 ± 0.025
GCAAGGGTAT | 1.01 ± 0.025
TAACTGCAGA | 1.01 ± 0.038
GCTGCCACTA | 1.003 ± 0.004
TCGGGGGGAG | 1.01 ± 0.018
TCCTCATTTG | 1.005 ± 0.0078
AATTCTATAG | 0.995 ± 0.033
CATAATCAGG | 1.04 ± 0.03
TCGGGGGCGG | 1.02 ± 0.078
CAAAAAGGGG | 0.964 ± 0.039
ATGTATCACT | 0.984 ± 0.015
GGTTGGGCTC | 1.001 ± 0.0099
CGGTGGCGGG | 1.004 ± 0.0095
TGGTCGCGTT | 0.988 ± 0.043
TAAGAAGTCC | 0.977 ± 0.045
GTTCCAGTTT | 1.039 ± 0.006
CCTGTTAAAT | 1.05 ± 0.022
ACTGAGGGGG | 1 ± 0.01
GGGTTTATGC | 0.9921 ± 0.0067
ATATTTTAGC | 1.03 ± 0.074
CATGGGCAG | 0.992 ± 0.034
GTGGAATTTT | 1.01 ± 0.0057

Sequence | switch fluorescence ratio
CAAGGTAGGG | 0.968 ± 0.019
TGGGGAAACG | 0.9455 ± 0.0068
GGGACTAGTT | 0.959 ± 0.046
TTCGAGGTTT | 0.982 ± 0.059
ACAAATGCAA | 1.12 ± 0.037
CACTGGAGAA | 1.044 ± 0.0051
TAGATAGAGG | 0.961 ± 0.016
CGGTCCTATG | 0.993 ± 0.029
TGATCCTTGG | 1.03 ± 0.031
GGGGGGATTT | 1.02 ± 0.063
ATTTGTGTGG | 0.973 ± 0.021
TTGGGTTAGG | 0.979 ± 0.021
CCAGGCGTAT | 1.032 ± 0.0023
ACATTCCAGT | 1.14 ± 0.15
TTGGGCGTTT | 1 ± 0.043
AGCCCTAAGG | 0.979 ± 0.045
TGTGGTTGGG | 0.989 ± 0.027
AAAATGATCG | 1.006 ± 0.0074
TTATAATGGG | 0.988 ± 0.025
CAGGGATGGA | 0.981 ± 0.013
CATAGTGATG | 0.986 ± 0.026
TTTGAGATTT | 0.9974 ± 0.009
TTAATCCAGT | 1.02 ± 0.035

Sequence | switch fluorescence ratio
ATGTGGATTC | 1.02 ± 0.036
CTTAGGGTGT | 0.964 ± 0.04
TTAGGGACGC | 1.08 ± 0.025
GGTAACAGCT | 1.04 ± 0.051
GAGAAGTTAG | 1.02 ± 0.023
GAAATACAAC | 1.04 ± 0.028
GGCGGGCGCT | 0.993 ± 0.032
TAGGGTAAAT | 0.985 ± 0.012
TATTGTCTTT | 1.02 ± 0.025
ATAGGGGCTT | 0.9989 ± 0.0085
CGCTTATAGG | 1.03 ± 0.052
TTAAGAAG | 0.996 ± 0.015
TGTTCTACAG | 1 ± 0.02
AGAGGCCGAT | 1.022 ± 0.0012
TGTAAGTTTC | 1.04 ± 0.073
TAGAAACGAG | 1.02 ± 0.087
TCGGACGGAA | 2.17 ± 0.21
CAAGAAGATG | 0.9523 ± 0.0012
ACAAAGCGCC | 1.06 ± 0.015
